Reference: patent US20200354425A1 (DONG-A ST CO., LTD., published 2020)
*1 amine or outer side, *2 acyl side, *3 side chain or, on linkers, in order; H or OH if unused. Bridges are numbered along the chain shown (N, C = ends). Where no end group is shown, it is not given here. Side-chain parts run from the residue outwards. [ ]: non-standard residue; d: D form. The star is where a group is joined. γGlu = O=C(O)[C@H](CCC(=O)[*:2])N[*:1]; Stearoyl = CCCCCCCCCCCCCCCCCC(=O)*; AEEA = NCCOCCOCC(=O)O; Aib = CC(C)(N)C(=O)O

What was measured:
Human GLP-1 receptor = Human GLP-1 receptor (human, UniProt P43220); test: cell-based or functional assay
Human glucagon receptor = Human glucagon receptor (human, UniProt P47871); test: cell-based or functional assay

Binder	EC50(pM), CRE-driven luciferase activity (Human GLP-1 receptor) [pM]	EC50(pM), CRE-driven luciferase activity (Human glucagon receptor) [pM]
H-H[Aib]QGTFTSDYSKYLDEKRAKEFVQWLMNTKC-OH (lactam 16-20; SMILES CSCC[C@H](NC(=O)[C@H](CC(C)C)NC(=O)[C@H](Cc1c[nH]c2ccccc12)NC(=O)[C@H](CCC(N)=O)NC(=O)[C@@H](NC(=O)[C@H](Cc1ccccc1)NC(=O)[C@H](CCC(=O)O)NC(=O)[C@@H]1CCCCNC(=O)CC[C@H](NC(=O)[C@H](CC(=O)O)NC(=O)[C@H](CC(C)C)NC(=O)[C@H](Cc2ccc(O)cc2)NC(=O)[C@H](CCCCN)NC(=O)[C@H](CO)NC(=O)[C@H](Cc2ccc(O)cc2)NC(=O)[C@H](CC(=O)O)NC(=O)[C@H](CO)NC(=O)[C@@H](NC(=O)[C@H](Cc2ccccc2)NC(=O)[C@@H](NC(=O)CNC(=O)[C@H](CCC(N)=O)NC(=O)C(C)(C)NC(=O)[C@@H](N)Cc2c[nH]cn2)[C@@H](C)O)[C@@H](C)O)C(=O)N[C@@H](CCCCN)C(=O)N[C@@H](CCCNC(=N)N)C(=O)N[C@@H](C)C(=O)N1)C(C)C)C(=O)N[C@@H](CC(N)=O)C(=O)N[C@H](C(=O)N[C@@H](CCCCN)C(=O)N[C@@H](CS)C(=O)O)[C@@H](C)O) [Compound 47]	< 10	–
HXQGTFTSDXSKYLDXRRAQDFVQWLMNTK (Aib at positions 2 and 16; Z at position 10 = Lys([Gly-Gly-Ser-Gly-Ser-Gly]-[gamma glutamic acid]-[octadecanoyl])) [Compound 11]	< 10	–
H[Aib]QGTFTSK([AEEA-AEEA-γGlu-Stearoyl])YSKYLD[Aib]RRAQDFVQWLMNTK [Compound 40]	–	> 1000
HXQGTFTSDXSKYLDXRRAQDFVQWLMNTKRNRNNIA (Aib at positions 2 and 16; Z at position 10 = Lys([(2-(2-(2-aminoethoxy)ethoxy)acetoyl)2]-[gamma glutamicacid]-[octadecanoyl])) [Compound 7]	< 10	< 10
HXQGTFTSDXSKYLDERRAKDFVQWLMNTK (Aib at position 2; Z at position 10 = Lys([(2-(2-(2-aminoethoxy)ethoxy)acetoyl)2]-[gamma glutamicacid]-[octadecanoyl]); lactam ring formed between E and K (positions 16 and 20)) [Compound 14]	< 10	< 10
H[Aib]QGTFTSDK([AEEA-AEEA-γGlu-Stearoyl])SKYLD[Aib]RRAQDFVQWLLRAK [Compound 12]	< 10	< 10
HXQGTFTSDXSKYLDXRRAQDFVQWLMNTK (not fully specified; Aib at positions 2 and 16; Z at position 10 = Lys([(2-(2-(2-aminoethoxy)ethoxy)acetoyl)2]-[gammaglutamicacid]-[19-carboxypeptadecanoyl]) (so in the source)) [Compound 44]	–	> 1000
H[Aib]QGTFTSDKSKYLD[Aib]RRAQDFVQWLMNTK [Compound 39]	> 1000	> 1000
HXQGTFTSDXSKYLDXRRAQDFVQWLMNTK (Aib at positions 2 and 16; Z at position 10 = Lys([(2-(2-(2-aminoethoxy)ethoxy)acetoyl)2]-[gammaglutamicacid]-[17-carboxyheptadecanoyl])) [Compound 43]	> 1000	> 1000
HXQGTFTSDXSKYLDXRRAQDFVQWLMNTK (Aib at positions 2 and 16; Z at position 10 = Lys([(2-(2-(2-aminoethoxy)ethoxy)acetoyl)2]-[gamma glutamicacid]-[octadecanoyl]); C-terminal amide (-NH2)) [Compound 6]	< 10	< 10
HSQGTFTSDXSKYLDSRRAQDFVQWLMNTK (Z at position 10 = Lys([(2-(2-(2-aminoethoxy)ethoxy)acetoyl)2]-[gamma glutamicacid]-[octadecanoyl]); C-terminal amide (-NH2)) [Compound 4]	< 10	–
HXQGTFTSDXSKYLDXRRAQDFVQWLMNTK (not fully specified; Aib at positions 2 and 16; Z at position 10 = Lys([(2-(2-(2-aminoethoxy)ethoxy)acetoyl)2]-[gammaglutamicacid]-[15-carboxypeptadecanoyl]) (so in the source)) [Compound 42]	–	> 1000
HXQGTFTSDXSKYLDXRRAQDFVQWLMNTK (Aib at positions 2 and 16; Z at position 10 = Lys([(2-(2-(2-aminoethoxy)ethoxy)acetoyl)3]-[gamma glutamicacid]-[octadecanoyl])) [Compound 10]	< 10	< 10
